Source: paper PMC10189128 (Frontiers in Cellular and Infection Microbiology, 2023)

Molecular target: T1, Mouse Fc-fused SARS-CoV-2 RBD (SARS-CoV-2, original strain (Wuhan-Hu-1 …, UniProt P0DTC2))
T1 construct: source: bought: Sino Biological
Experiment: SPR
Conditions: both partners purified

B1: anti-SARS-CoV-2 single-chain variable fragment S1-16 (scFv, V domains shown)
VH: QVQLVQSGAEVKKPGASVKVSCKASGYTFTSYYMHWVRQAPGQGLEWMGIINSSGGSTSYAQKFQGRVTMTRDTSTSTVYMELSSLRSEDTAVYYCARPPRNYYDRSGYYQRAEYFQHWGQGTLVTVSS
VL: DIQLTQSPSSLSASVGDRVTITCQASQDISNYLNWYQQRPGKAPKLLIYDASNLETGVPSRFSGSGSGTDFTFTISSLQPEDIATYYCQQYDNPPLTFGGGTKLEIK
notes: also called scFv S1-16; not shown: His6, C-terminal, kept
Question: B1 was tested. Which Kd did it give?
Answer: 135 nM
